Here are results for five molecules from US20220281980A1 (Bristol-Myers Squibb, published 2022).

In assay [1] the target is T1, human MICA*002 expressed on CHO cells (human, UniProt Q29983 24-382).
T1 construct: also called MICA allele 002
T1 chain: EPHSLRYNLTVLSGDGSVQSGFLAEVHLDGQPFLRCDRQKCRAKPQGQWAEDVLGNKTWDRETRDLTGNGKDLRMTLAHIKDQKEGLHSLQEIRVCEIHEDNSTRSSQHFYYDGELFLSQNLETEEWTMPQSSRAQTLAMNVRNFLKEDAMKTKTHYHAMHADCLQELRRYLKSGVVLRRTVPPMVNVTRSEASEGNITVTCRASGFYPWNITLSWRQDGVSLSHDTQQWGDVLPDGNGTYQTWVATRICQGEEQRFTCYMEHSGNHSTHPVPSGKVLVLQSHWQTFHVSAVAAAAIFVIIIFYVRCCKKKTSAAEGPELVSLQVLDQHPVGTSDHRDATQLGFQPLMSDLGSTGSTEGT
In words: flow cytometry, transfected CHO cells. (In general: In flow cytometry, cells or beads pass a laser one at a time.)

Assay [2] deals with T2, human MICA*004 expressed on CHO cells (human, UniProt Q29983 24-383).
T2 construct: also called MICA allele 004
T2 chain: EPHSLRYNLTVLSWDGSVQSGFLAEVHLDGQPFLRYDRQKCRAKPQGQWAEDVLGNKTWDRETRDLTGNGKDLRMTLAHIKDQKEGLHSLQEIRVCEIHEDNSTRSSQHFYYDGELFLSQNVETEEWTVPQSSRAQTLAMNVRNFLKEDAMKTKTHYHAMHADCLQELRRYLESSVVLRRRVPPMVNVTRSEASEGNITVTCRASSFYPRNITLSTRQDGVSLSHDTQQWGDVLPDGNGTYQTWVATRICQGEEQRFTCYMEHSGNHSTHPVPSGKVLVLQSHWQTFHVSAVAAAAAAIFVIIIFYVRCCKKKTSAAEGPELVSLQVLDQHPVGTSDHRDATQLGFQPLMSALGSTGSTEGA
Briefly: flow cytometry, transfected CHO cells.

Assay [3] concerns the target T3, human MICA*008 expressed on CHO cells (human, UniProt Q29983 24-331).
T3 construct: also called MICA allele 008
T3 chain: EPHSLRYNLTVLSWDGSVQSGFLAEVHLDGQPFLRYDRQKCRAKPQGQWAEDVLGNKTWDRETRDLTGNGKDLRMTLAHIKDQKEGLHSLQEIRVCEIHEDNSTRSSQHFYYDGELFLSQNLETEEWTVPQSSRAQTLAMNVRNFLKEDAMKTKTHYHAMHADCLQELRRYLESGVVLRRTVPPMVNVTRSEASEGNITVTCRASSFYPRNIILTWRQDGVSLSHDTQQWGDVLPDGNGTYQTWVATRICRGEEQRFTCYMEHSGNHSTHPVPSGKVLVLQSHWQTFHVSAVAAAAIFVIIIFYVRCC
In words: flow cytometry, transfected CHO cells.

In assay [4] the target is T4, human MICA*010 expressed on CHO cells (human, UniProt Q29983 24-383).
T4 construct: also called MICA allele 010
T4 chain: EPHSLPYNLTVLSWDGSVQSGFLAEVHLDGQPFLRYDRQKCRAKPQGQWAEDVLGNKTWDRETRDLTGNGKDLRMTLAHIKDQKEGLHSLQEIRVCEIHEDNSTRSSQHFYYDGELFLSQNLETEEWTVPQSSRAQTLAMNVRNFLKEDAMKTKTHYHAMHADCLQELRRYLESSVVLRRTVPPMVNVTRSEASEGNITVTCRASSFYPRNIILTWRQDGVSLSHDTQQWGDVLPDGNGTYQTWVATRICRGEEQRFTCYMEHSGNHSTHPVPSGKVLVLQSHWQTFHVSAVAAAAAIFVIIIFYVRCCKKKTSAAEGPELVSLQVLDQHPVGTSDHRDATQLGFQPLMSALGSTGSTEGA
In words: flow cytometry, transfected CHO cells.

In assay [5] the target is T5, human MICB expressed on transduced cells (human, UniProt Q29980 23-382).
T5 construct: also called MICB*005
T5 chain: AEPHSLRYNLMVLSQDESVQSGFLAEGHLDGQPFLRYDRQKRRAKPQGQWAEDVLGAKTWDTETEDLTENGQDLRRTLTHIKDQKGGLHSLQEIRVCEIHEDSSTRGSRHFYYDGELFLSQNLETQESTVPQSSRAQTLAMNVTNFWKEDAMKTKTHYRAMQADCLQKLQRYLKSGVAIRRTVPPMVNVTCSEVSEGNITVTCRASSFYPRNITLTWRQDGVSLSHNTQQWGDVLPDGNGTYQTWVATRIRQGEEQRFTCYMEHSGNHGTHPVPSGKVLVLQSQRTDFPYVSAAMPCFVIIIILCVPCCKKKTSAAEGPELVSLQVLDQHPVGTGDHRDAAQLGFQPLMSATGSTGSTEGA
In words: flow cytometry, transfected CHO cells.

Assay [6] concerns the target T6, cynomolgus monkey MICA/B clone #6 expressed on CHO cells (cynomolgus monkey).
T6 construct: whole, on cells; also called cyno#6; CHO-cyno MICA clone #6
In words: flow cytometry, transfected CHO cells.

In assay [7] the target is T7, recombinant soluble human MICA*008 antigen (human, UniProt Q29983 24-307).
T7 construct: also called huIMICA-his allele *008; recombinant soluble MICA (allele 8)
T7 chain: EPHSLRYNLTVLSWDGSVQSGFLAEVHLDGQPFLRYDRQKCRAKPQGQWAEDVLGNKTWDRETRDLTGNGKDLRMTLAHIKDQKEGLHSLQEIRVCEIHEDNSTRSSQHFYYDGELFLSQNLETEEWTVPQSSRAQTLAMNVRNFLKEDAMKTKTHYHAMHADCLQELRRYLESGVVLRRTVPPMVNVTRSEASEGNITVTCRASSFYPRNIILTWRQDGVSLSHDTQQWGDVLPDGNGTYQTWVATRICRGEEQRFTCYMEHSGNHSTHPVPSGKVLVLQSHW
In words: BLI (Octet) sandwich binning on soluble MICA allele 8, row antibody captured; competitor (second antibody): MICA.2. As to the method: (§1) The binning experiments were performed on an Octet HTX instrument at 25° C. in HEPES buffered saline (10 mM HEPES pH 7.4, 150 mM NaCl, 0.05% v/v surfactant P20, and 1 mg/mL BSA). Anti-MICA/B antibodies and NKG2D-mFc were captured on anti-Fc tips and remaining capture sites were blocked with an excess of negative control IgG. Recombinant soluble MICA (allele 8) was bound and subsequent binding (“sandwiching”) of anti-MICA/B antibodies was tested.

Assay [8] addresses T7, recombinant soluble human MICA*008 …. In words: BLI (Octet) sandwich binning on soluble MICA allele 8, row antibody captured; competitor (second antibody): MICA.38. As to the method: as §1
Background: Biolayer interferometry detects binding as a change in optical thickness at a sensor tip.

Assay [9] has the same target. In words: BLI (Octet) sandwich binning on soluble MICA allele 8, row antibody captured; competitor (second antibody): MICA.39. The method, then:
as §1

B1: 71C2 (antibody, V domains shown)
VH: EVQLVESGGGLVQPGRSLRLSCAASGFTFNNYAMHWVRQAPGKGLEWVSGITWNSDSIGYADSVKGRFTISRDNAKNSLYLQMNSLRAEDTALYYCAKDSVLLWFGGMDVWGQGTTVTVSS
VL: not shown
notes: Hybridoma antibody
As to B1, the concentration for a half-maximal effect (EC50) turned out to be 264 nM in [1]; 26.2 nM in [2]; 10 nM in [3]; 80 nM in assay [4]; 9.81 nM in assay [5]; 232 nM in [6].

B2: MICA.36 (antibody, V domains shown)
VH: QVQLVESGGGVVQPGRSLRLSCAASGFTFSNYAMHWVRQAPGEGLEWVALIWYDGSNKFYGDSVKGRFTISRDNSKNTLYLQMNSLSAEDTAVYYCAREGSGHYWGQGTLVTVSS
VL: AIQLTQSPSSLSASVGDRVTITCRASQGISSALAWYQQKPGKVPKSLIYDASSLESGVPSRFSGSGSGTDFTLTISSLQPEDFATYYCQQFNSYPITFGQGTRLEIK
notes: it says that the name implies no specific constant region; Radioiodinated in the Scatchard assay; also called MICA.36 antibody
For B2, the “simultaneous binding (0 = no, 1 = yes)” value in assay [7], in assay [8] and in assay [9] was 1 each time.

B3: 19G6 (antibody, V domains shown)
VH: QVQLVESGGGVVQPGRSLRLSCAASGFTFSNYAMHWVRQAPGEGLEWVALIWYDGSNKFYGDSVKGRFTISRDNSKNTLYLQMNSLSAEDTAVYYCAREGSGHYWGQGTLVTVSS
VL: AIQLTQSPSSLSASVGDRVTITCRASQGISSALAWYQQKPGKVPKSLIYDASSLESGVPSRFSGSGSGTDFTLTISSLQPEDFATYYCQQFNSYPITFGQGTRLEIK
notes: Hybridoma antibody from human IgG transgenic mice, parent of MICA.36; also called 19G6 mAb; hybridoma 19G6
Take B3: the EC50 in assay [1] stood at 152 nM; in assay [2] it was 11.4 nM; in [3], 9.23 nM; in assay [4] it was 18.5 nM; in assay [5], 1.83 nM; in [6], 22 nM.

B4: 24G11 (antibody, V domains shown)
VH: EVQLVQSGAEVKKPGESLKISCKGSGYSFTNYWIGWVRQMPGKGLEWLGIIHPGDSYTRYSPSFQGQVTISADKSISTAYLQWSSLKASDTAIYYCAREGIAATPFDYWGQGTLVTVSS
VL: EIVLTQSPATLSLSPGERATLSCRASQSVSSYLAWFQQKPGQAPRLLIYDASNRATGIPARFSGSGSGTDFTLTISSLEPEDFAVYYCQQRSNWPPTFGQGTKVEIK
notes: also called MICA.54; 24G11 (MICA.54)
Take B4: the EC50 in [1] came to 1060 nM; in [2] it was 518 nM; in assay [3] it was 248 nM; in [4], 722 nM; in assay [5], 262 nM; in assay [6] it was 331 nM. For the same molecule, the “simultaneous binding (0 = no, 1 = yes)” value in assay [7], in assay [8] and in assay [9] was 1 throughout.

B5: MICA.2 (antibody, human IgG1, kappa, V domains shown)
VH: EVQLVESGGGLVQPGGSLRLSCAASGFTFSTYSMNWVRQAPGKGLEWVSYISYRSRTIYYADSVKGRFTISRDNARNSLYLQMNSLRDEDTAVYYCARWGYGSGGFDYWGQGTLVTVSS
VL: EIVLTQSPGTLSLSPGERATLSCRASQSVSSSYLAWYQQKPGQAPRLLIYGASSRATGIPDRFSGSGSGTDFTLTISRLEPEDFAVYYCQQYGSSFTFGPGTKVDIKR
notes: 3F5 variable regions on human IgG1f and human kappa constant regions, made in CHO-S cells; also called 3F5; recombinant antibody of 3F5
Consider B5, for which the EC50 is 5.37 nM in [1]; 2.94 nM in [2]; 2.14 nM in assay [3]; 6.91 nM in assay [4]; 6 nM in assay [5]; 4.01 nM in assay [6]. Moreover, the “simultaneous binding (0 = no, 1 = yes)” value in [7], in [8] and in assay [9] was 0 each time.

By EC50 is commonly meant the concentration needed to bring the measured effect to its halfway point.
